Assay results published in patent US20190016816A1 (APTEVO RESEARCH AND DEVELOPMENT, published 2019).
Blank lines part the entries; values can stand above or below the binder they belong to.

Legend:
human CD137 on cells = human CD137 on cells (human, UniProt Q07011 24-255); experiment: cell-based or functional assay
[1] = biological target: T1, cynomolgus CD137 on cells (cynomolgus macaque, UniProt A9YYE7 24-254); experiment: cell-based or functional assay
human 5T4 on cells [2] = biological target: T2, human 5T4 on cells (human, UniProt Q13641 32-420); experiment: flow cytometry, H1975 cells, PE goat anti-human Fc
T2 construct: also called TPBG; hu5T4
T2 sequence: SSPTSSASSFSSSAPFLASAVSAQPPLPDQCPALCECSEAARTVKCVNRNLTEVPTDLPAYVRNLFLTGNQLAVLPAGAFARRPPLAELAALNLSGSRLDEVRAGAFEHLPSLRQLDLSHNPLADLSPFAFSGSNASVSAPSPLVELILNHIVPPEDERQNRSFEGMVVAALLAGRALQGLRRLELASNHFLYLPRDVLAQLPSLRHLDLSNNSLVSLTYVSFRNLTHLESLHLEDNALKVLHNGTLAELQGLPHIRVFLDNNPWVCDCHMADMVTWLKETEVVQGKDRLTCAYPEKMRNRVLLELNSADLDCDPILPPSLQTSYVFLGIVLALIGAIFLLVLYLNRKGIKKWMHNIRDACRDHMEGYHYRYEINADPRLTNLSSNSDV
Method: A 3-fold titration of ALG.APV-210 construct (ranging from 100 nM to 0.14 nM) was incubated with the human 5T4-expressing cell lines for 40 minutes in FACS buffer at 4° C., washed 3 times, and detected with PE-labeled, goat-anti-human Fc secondary antibody (Jackson ImmunoResearch). Binding of ALG.APV-210 was detected by flow cytometry. All samples were run in duplicates. Nonlinear regression analysis to determine EC₅₀ values was performed in GraphPad Prism 6® graphing and statistics software.

FcγRIIb (CD32b) = biological target: T3, FcγRIIb (CD32b) (UniProt P31994 43-310, limits assumed); experiment: flow cytometry, CHO cells stably expressing CD32b, fluorescent anti-human IgG secondary, MFI (mean)
T3 construct: whole, on cells
T3 sequence (looked up): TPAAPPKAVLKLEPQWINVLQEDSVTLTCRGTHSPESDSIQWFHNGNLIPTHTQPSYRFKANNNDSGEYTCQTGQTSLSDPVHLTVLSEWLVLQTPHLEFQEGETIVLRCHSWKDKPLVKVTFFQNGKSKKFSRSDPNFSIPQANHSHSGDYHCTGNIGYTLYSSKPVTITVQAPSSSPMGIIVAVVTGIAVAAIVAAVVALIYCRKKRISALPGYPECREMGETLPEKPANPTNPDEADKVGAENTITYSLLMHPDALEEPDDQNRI
Text: ALG.APV-210 contains mutations introduced to prevent interaction with Fcγ receptors (FcγR) that could lead to FcγR-mediated T-cell activation or ADCC, ADCP, CDC etc. Binding of ALG.APV-210 was therefore tested on CHO cell transfectants stably expressing the following FcγR: FcγRI (CD64), FcγRIIa (CD32a His131), FcγRIIb (CD32b), FcγRIIIa (CD16a Val158 and CD16a Phe158), and FcγRIIIb (CD16b). Untransfected CHO cells were used as negative control. A control human IgG1 molecule was used as a positive control. Different concentrations of ALG.APV-210 or control IgG1 were incubated with the FcγR-expressing cell lines, washed, and labeled with a secondary anti-human IgG reagent. Binding of ALG.APV-210 and the control IgG1 was detected by flow cytometry.

human 5T4 on cells [3] = biological target: T2, human 5T4 on cells; experiment: flow cytometry, SKOV-3 cells, streptavidin-PE, normalized MFI of 2 pooled experiments
Method: Prior to the FACS staining, all cell lines were characterized for their 5T4 expression levels using a receptor density kit (Quantum Simply Cellular, anti-human IgG, Bangs Laboratories, Inc). Adherent cell lines were cultured according to their supplier's instructions and were harvested from their cell culture flasks using Trypsin/EDTA, counted in R10 medium in a Burker chamber, and diluted in FACS buffer (PBS+0.5% BSA, 0.05% NaN₃) to a concentration of 4×10⁶ cells/mL. 50 μL (0.20×10⁶) of cell solution was added to a 96-well FACS staining plate (Falcon #351190). Cells were incubated for 20 min in 4° C. with 50 μL of the biotinylated ALG.APV-210 (2× final concentration). The antibodies were added in a serial dilution starting at 20 μg/mL titrating down in a 12 step ½ dilution down to 0.010 μg/mL. Following 2× washing with FACS buffer, cells were incubated for 30 min in 4° C. with 100 μL of a secondary antibody (streptavidin-PE, BD #554061, diluted 1/500). […] Cells were analysed for ALG.APV-210 binding using flow cytometry (FACSVerse) by gating on single cells. MFI values (secondary antibody only subtracted) from 1 out of 2 independent experiments, as well as normalized data and EC₅₀-values of pooled data from 2 experiments were determined and plotted using GraphPad Prism 7, non-linear regression log (agonist) vs. normalized response—variable slope.

[4] = biological target: T1, cynomolgus CD137 on cells; experiment: flow cytometry, CHO-K1 cells expressing cynomolgus CD137, PE anti-human IgG Fc secondary, MFI (median)
Method: Binding studies on CHO-K1 cells lines expressing CD137 were performed by standard flow cytometry-based staining procedures. CHO-K1 cells (generated by Alligator) were transfected with human or cynomolgus macaque CD137. A typical experiment would label approximately 100,000 cells per well, in 96-well plates, with a range of 100 nM to 0.05 nM binding molecule in 50 μL of saline buffer with 2% BSA and 2 mM EDTA, for 30 min on ice, followed by washes and incubation with PE-labeled secondary antibody, goat anti-human IgG Fcγ ([…]), for 20 minutes on ice. Signal from bound molecules was detected using a LSR-II™ or a Symphony A3 flow cytometer (BD Biosciences) and analyzed by FlowJo flow cytometry analysis software. Median fluorescence intensity (MFI-median) of bound molecules on live cells was determined after exclusion of doublets cells. Nonlinear regression analysis to determine EC₅₀ values was performed in GraphPad Prism 6® graphing and statistics software.

T1 sequence (A9YYE7 entry or part of it): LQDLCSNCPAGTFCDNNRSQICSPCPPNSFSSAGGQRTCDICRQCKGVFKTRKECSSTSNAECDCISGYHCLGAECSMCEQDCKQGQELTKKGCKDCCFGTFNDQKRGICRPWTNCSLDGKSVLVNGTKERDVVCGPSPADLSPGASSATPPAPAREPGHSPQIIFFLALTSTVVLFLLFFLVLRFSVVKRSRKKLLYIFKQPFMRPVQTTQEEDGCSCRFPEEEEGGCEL
human CD137 on cells, sequence (Q07011 24-255 limits assumed): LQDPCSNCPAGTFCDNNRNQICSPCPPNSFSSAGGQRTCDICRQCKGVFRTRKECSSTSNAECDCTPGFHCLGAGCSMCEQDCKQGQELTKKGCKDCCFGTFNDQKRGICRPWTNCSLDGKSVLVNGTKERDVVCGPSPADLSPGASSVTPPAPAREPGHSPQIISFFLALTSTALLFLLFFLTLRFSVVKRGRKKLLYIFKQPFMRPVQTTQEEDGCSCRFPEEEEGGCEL

EC50 (nM), IFNγ release of human CD8 T cells on plate immobilized 5T4-Fc and anti-CD3 (human CD137 on cells): 0.2 nM
EC50 (nM), IFNγ release of cynomolgus CD8 T cells on plate immobilized 5T4-Fc and anti-CD3 [1]: 0.4 nM
EC50 (human 5T4 on cells [2]): 20 nM
binding result (FcγRIIb (CD32b)): no binding (tested: 1000 nM)
B1: ALG.APV-210 (bispecific antibody)
chain: EVQLLESGGGLVQPGGSLRLSCAASGFTFSHGSMYWVRQAPGKGLEWVSSISSGSGSTYYADSVKGRFTISHDNSKNTLYLQMNSLRAEDTAVYYCARSSYYGSYYSIDYWGQGTLVTVSSGGGGSGGGGSGGGGSGGGGSDIQMTQSPSSLSASVGDRVTITCRASQSISSYLNWYQQKPGKAPKLLIYAASSLQSGVPSRFSGSGSGTDFTLTISSLQPEDFATYYCQQYYDNLPTFGQGTKLEIKEPKSSDKTHTCPPCPAPEAAGAPSVFLFPPKPKDTLMISRTPEVTCVVVDVSHEDPEVKFNWYVDGVEVHNAKTKPREEQYNSTYRVVSVLTVLHQDWLNGKEYKCAVSNKALPAPIEKTISKAKGQPREPQVYTLPPSRDELTKNQVSLTCLVKGFYPSDIAVEWESNGQPENNYKTTPPVLDSDGSFFLYSKLTVDKSRWQQGNVFSCSVMHEALHNHYTQKSLSLSPGSGGGGSGGGGSGGGGSPSEVQLLESGGGLVQPGGSLRLSCAASGFTFSSYAMSWVRQAPGKCLEWVSAISGSGGSTYYADSVKGRFTISRDNSKNTLYLQMNSLRAEDTAVYYCARYYGGYYSAWMDYWGQGTLVTVSSGGGGSGGGGSGGGGSGGGGSDIQMTQSPSSLSASVGDRVTITCRASQSISSFLNWYQQKPGKAPKLLIYAASSLQSGVPSRFSGSGSGTDFTLTISSLQPEDSATYYCQQTYGYLHTFGCGTKLEIKR
notes: Optimized ADAPTIR scFv-Fc-scFv homodimer with stabilizing disulfide in the 1210 scFv; also called 5T4-CD137 bispecific antibody

B2: biotinylated ALG.APV-210 (bispecific antibody)
chain: EVQLLESGGGLVQPGGSLRLSCAASGFTFSHGSMYWVRQAPGKGLEWVSSISSGSGSTYYADSVKGRFTISHDNSKNTLYLQMNSLRAEDTAVYYCARSSYYGSYYSIDYWGQGTLVTVSSGGGGSGGGGSGGGGSGGGGSDIQMTQSPSSLSASVGDRVTITCRASQSISSYLNWYQQKPGKAPKLLIYAASSLQSGVPSRFSGSGSGTDFTLTISSLQPEDFATYYCQQYYDNLPTFGQGTKLEIKEPKSSDKTHTCPPCPAPEAAGAPSVFLFPPKPKDTLMISRTPEVTCVVVDVSHEDPEVKFNWYVDGVEVHNAKTKPREEQYNSTYRVVSVLTVLHQDWLNGKEYKCAVSNKALPAPIEKTISKAKGQPREPQVYTLPPSRDELTKNQVSLTCLVKGFYPSDIAVEWESNGQPENNYKTTPPVLDSDGSFFLYSKLTVDKSRWQQGNVFSCSVMHEALHNHYTQKSLSLSPGSGGGGSGGGGSGGGGSPSEVQLLESGGGLVQPGGSLRLSCAASGFTFSSYAMSWVRQAPGKCLEWVSAISGSGGSTYYADSVKGRFTISRDNSKNTLYLQMNSLRAEDTAVYYCARYYGGYYSAWMDYWGQGTLVTVSSGGGGSGGGGSGGGGSGGGGSDIQMTQSPSSLSASVGDRVTITCRASQSISSFLNWYQQKPGKAPKLLIYAASSLQSGVPSRFSGSGSGTDFTLTISSLQPEDSATYYCQQTYGYLHTFGCGTKLEIKR
notes: also called ALG.APV-210 (biotinylated for FACS detection)
EC50 (human 5T4 on cells [3]): 15 nM

EC50 [4]: 1.7 nM
B3: ALG.APV-187 (bispecific antibody)
chain: EVQLLESGGGLVQPGGSLRLSCAASGFTFSHGSMYWVRQAPGKGLEWVSSISSGSGSTYYADSVKGRFTISHDNSKNTLYLQMNSLRAEDTAVYYCARSSYYGSYYSIDYWGQGTLVTVSSGGGGSGGGGSGGGGSGGGGSDIQMTQSPSSLSASVGDRVTITCRASQSISSYLNWYQQKPGKAPKLLIYAASSLQSGVPSRFSGSGSGTDFTLTISSLQPEDFATYYCQQYYDNLPTFGQGTKLEIKSSEPKSSDKTHTCPPCPAPEAAGAPSVFLFPPKPKDTLMISRTPEVTCVVVDVSHEDPEVKFNWYVDGVEVHNAKTKPREEQYNSTYRVVSVLTVLHQDWLNGKEYKCAVSNKALPAPIEKTISKAKGQPREPQVYTLPPSRDELTKNQVSLTCLVKGFYPSDIAVEWESNGQPENNYKTTPPVLDSDGSFFLYSKLTVDKSRWQQGNVFSCSVMHEALHNHYTQKSLSLSPGSGGGGSGGGGSGGGGSPSEVQLLESGGGLVQPGGSLRLSCAASGFTFSSYAMSWVRQAPGKCLEWVSAISGSGGSTYYADSVKGRFTISRDNSKNTLYLQMNSLRAEDTAVYYCARYYGGYYSAWMDYWGQGTLVTVSSGGGGSGGGGSGGGGSGGGGSDIQMTQSPSSLSASVGDRVTITCRASQSISSFLNWYQQKPGKAPKLLIYAASSLQSGVPSRFSGSGSGTDFTLTISSLQPEDSATYYCQQTYGYLHTFGCGTKLEIKR
notes: Optimized ADAPTIR scFv-Fc-scFv homodimer with stabilizing disulfide in the 1210 scFv
